In article PMC8792056 (2022):
Values belong to the molecule of their own block, whether it stands above or below them.

What was measured:
[1] = target: DNAJB14-ΔDUF, FLAG-tagged (human); test: co-IP; HEK293T cells transfected with FLAG-tagged chaperone (DNAJB12 isoforms alone or with HTT-134Q-GFP or HTT-17Q-GFP; DNAJB14 forms also in cells expressing FUS-WT-YFP or FUS-R521H-YFP), lysed 48 h later in 50 mM HEPES pH 7.9, 0.5% Triton X-100, 5% glycerol, 150 mM NaCl, 2 mM EDTA; anti-FLAG M2 beads 3 h at 4 °C, 7 washes; blot with anti-HSC70/HSP70 for endogenous HSP70
[2] = target: DNAJB14-ΔDUF, FLAG-tagged (human); test: co-IP; HEK293T cells co-transfected with FLAG-tagged DNAJB14 forms and DNAJB12-FL-mOrange; lysis in 50 mM HEPES pH 7.9, 0.5% Triton X-100, 5% glycerol, 150 mM NaCl, 2 mM EDTA; anti-FLAG M2 beads 3 h at 4 °C, 7 washes; blot with anti-RFP for mOrange, normalised to the FLAG band

interaction as percent of that of DNAJB14-FL [1]: 50%
Molecule: HSP70 (from UniProt P0DMV8 1-641) (natural protein)

fold lower interaction than with DNAJB14-FL [2]: 3 fold
B1: DNAJB12-FL-mOrange (natural protein)
chain: MESNKDEAERCISIALKAIQSNQPDRALRFLEKAQRLYPTPRVRALIESLNQKPQTAGDQPPPTDTTHATHRKAGGTDAPSANGEAGGESTKGYTAEQVAAVKRVKQCKDYYEILGVSRGASDEDLKKAYRRLALKFHPDKNHAPGATEAFKAIGTAYAVLSNPEKRKQYDQFGDDKSQAARHGHGHGDFHRGFEADISPEDLFNMFFGGGFPSSNVHVYSNGRMRYTYQQRQDRRDNQGDGGLGVFVQLMPILILILVSALSQLMVSSPPYSLSPRPSVGHIHRRVTDHLGVVYYVGDTFSEEYTGSSLKTVERNVEDDYIANLRNNCWKEKQQKEGLLYRARYFGDTDMYHRAQKMGTPSCSRLSEVQASLHG
